The source of these data is the supplement of paper PMC9170038.

The test system of this data set is K4 kissing-loop RNA reporter. Put plainly: apparent KD of K4 kissing-loop reporter; higher = weaker reporter binding. The settings on record: Eterna round: R107. How it is done: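 RNA-MaP round R107: designed RNA switches with theophylline, tryptophan, arginine or FMN aptamers are transcribed on-chip within common flanks. They are titrated with a labelled K4 kissing-loop RNA reporter in RNA-MaP buffer (100 mM Tris pH 7.5, 80 mM KCl, 4 mM MgCl2), without ligand or with the indicated ligand. Median apparent KD per design.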

Setting [1] is: input ligand: theophylline 20 uM.
The mark [2] stands for this setting: input ligand: tryptophan 2.4 mM.
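Further: bound reporter read as fluorescence of individual clusters on recovered sequencing chips by microscopy, with normalized cluster intensities fitted with a binding model.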

With “ACCCGGGCCCGAAAGGGCCCGGGAAGAGAUACCAGCAGCGAAAGCUGCCCUUGGCAGCUCACUUAGUGAUGUUGAGAAUAGGGCG [#21 K4 Theophylline A Same State]”, the “apparent KD of K4 kissing-loop reporter” value by setting is: (input ligand: FMN 200 uM) 657 nM; (input ligand: arginine 13.2 mM) 221 nM; (input ligand: none) 554 nM; under setting [1], 299 nM; under setting [2], 225 nM.

As to “ACCUGUAGUGAUGUUACUGGUGGUUAGGAAGGAGCGCCCGCGUGGGCAGGUAGGUCGCCUAAGCUAUGUGGGAAACCGCAUAUUG [#14 K4 Arginine A Same State]”, the “apparent KD of K4 kissing-loop reporter” value by setting is: (input ligand: FMN 200 uM) 75.5 nM; (input ligand: arginine 13.2 mM) 73.8 nM; (input ligand: none) 76.9 nM; under setting [1], 75.3 nM; under setting [2], 93.3 nM.

As to “ACGACGCAUAGUGAUACCAGCUAUAUAUGAGUGAUGUUCUACCUAAAAUGGUAAUAAUUUAGCCCUUGGCAGCACUAUGCGUCAG [KL-SSTheoB4]”, the “apparent KD of K4 kissing-loop reporter” value (input ligand: FMN 200 uM) amounted to 380 nM; the “apparent KD of K4 kissing-loop reporter” value (input ligand: arginine 13.2 mM) turned out to be 456 nM; the “apparent KD of K4 kissing-loop reporter” value (input ligand: none) was 377 nM; the “apparent KD of K4 kissing-loop reporter” value under setting [1] is 562 nM; the “apparent KD of K4 kissing-loop reporter” value under setting [2] was 262 nM.

For “ACGGGCGGCUGAAGGAGCGGGCGGGCCCGAGUGAUGUUCGGGUGGGCCGUGAGGCCCGGAGCCCAGGUAGGUCGCGGUUCCGUCC [#2 Same State - Arginine B Attempt #21 (HarryS)]”, the “apparent KD of K4 kissing-loop reporter” value (input ligand: FMN 200 uM) worked out at 135 nM; the “apparent KD of K4 kissing-loop reporter” value (input ligand: arginine 13.2 mM) worked out at 104 nM; the “apparent KD of K4 kissing-loop reporter” value (input ligand: none) amounted to 182 nM; the “apparent KD of K4 kissing-loop reporter” value under setting [1] is 171 nM; the “apparent KD of K4 kissing-loop reporter” value under setting [2] was found to be 164 nM.

With “ACGUAGUACGUAGGAUAUCAGAGAUCAGUUAGUGAGAUCGAGUGAUGUUCGAUCAAGUGUUCAUUUUGAGAAGGAUGUAGUAGGA [KL-SSFMN-B7]”, the “apparent KD of K4 kissing-loop reporter” value runs as follows: (input ligand: FMN 200 uM) 263 nM; (input ligand: arginine 13.2 mM) 320 nM; (input ligand: none) 387 nM; under setting [1], 428 nM; under setting [2], 238 nM.

For “ACGUAGUACGUAGGAUAUCAGAGAUCAGUUAGUGAGAUCGAGUGAUGUUCGAUCAUGUGUUCAGUUUGAGAAGGAUGUAGUAGGA [KL-SSFMN-B5]”, the “apparent KD of K4 kissing-loop reporter” value turned out to be 214 nM (input ligand: FMN 200 uM); 280 nM (input ligand: arginine 13.2 mM); 355 nM (input ligand: none); 408 nM under setting [1]; 198 nM under setting [2].

“ACGUAGUUCUAGGAUACCAGCCAAGAAGCCAGGACAAAAGUCCUGGCUGCCAGUGAUGUUGGCCCUUGGCAGCCUAGAACUACGA [Omei KL Theo B Exc B v10]”: the “apparent KD of K4 kissing-loop reporter” value was 128 nM (input ligand: FMN 200 uM); 113 nM (input ligand: arginine 13.2 mM); 121 nM (input ligand: none); 109 nM under setting [1]; 121 nM under setting [2].

As to “ACGUAGUUCUAGGAUACCAGCCAAGGCCCAGGACAAAAGUCCUGGGUCGCCAGUGAUGUUGGCCCUUGGCAGCCUAGAACUACGA [Omei KL Theo B Exc B v11]”, the “apparent KD of K4 kissing-loop reporter” value is, setting by setting: (input ligand: FMN 200 uM) 421 nM; (input ligand: arginine 13.2 mM) 358 nM; (input ligand: none) 457 nM; under setting [1], 387 nM; under setting [2], 444 nM.

Turning to “ACGUUCGGAACGGCCGCCACUAUGGGCAGUGAUGUUGCCCAUAACCGGUUUUGCGUCAGAUCCCUUAGGACCGGGUUCUGGUAUA [Soonlesoso]”, the “apparent KD of K4 kissing-loop reporter” value stood at 78.4 nM (input ligand: FMN 200 uM); 68.6 nM (input ligand: arginine 13.2 mM); 73.4 nM (input ligand: none); 65.8 nM under setting [1]; 75.2 nM under setting [2].

Take “ACUAAGGUUUUUGGAGCAGUGAUGUUGCUCCGAGGACCGGUACGGCCGCCACUCGGUGCAUGUAUGCGCUUCACUCCGGAAGUUG [Bieron]”: the “apparent KD of K4 kissing-loop reporter” value (input ligand: FMN 200 uM) was found to be 152 nM; the “apparent KD of K4 kissing-loop reporter” value (input ligand: arginine 13.2 mM) was found to be 140 nM; the “apparent KD of K4 kissing-loop reporter” value (input ligand: none) was determined as 165 nM; the “apparent KD of K4 kissing-loop reporter” value under setting [1] was 148 nM; the “apparent KD of K4 kissing-loop reporter” value under setting [2] stood at 139 nM.

In the case of “ACUCCGAGUGAUGUUAAGAGAUUCUCUGUUAAGGAUAUUUUGCGCAAAAGAAGGUAACCCGGUUUUCGUAAUCUGUUAAUGCGGA [theeternabot_exclusion_KL_FMN_A_38]”, the “apparent KD of K4 kissing-loop reporter” value (input ligand: FMN 200 uM) was 572 nM; the “apparent KD of K4 kissing-loop reporter” value (input ligand: arginine 13.2 mM) is 408 nM; the “apparent KD of K4 kissing-loop reporter” value (input ligand: none) stood at 581 nM; the “apparent KD of K4 kissing-loop reporter” value under setting [1] is 532 nM; the “apparent KD of K4 kissing-loop reporter” value under setting [2] worked out at 503 nM.

Take “ACUGGGUUGACGAAAGUCAACAAAUGAGAAGGAGCGCACGAAAGUGCAGGUAGGUCGCUCAUUCCAGUGAUGUUGGAUCACCAGA [#SwitchBubble 19 #K4Late]”: the “apparent KD of K4 kissing-loop reporter” value runs as follows: (input ligand: FMN 200 uM) 531 nM; (input ligand: arginine 13.2 mM) 456 nM; (input ligand: none) 836 nM; under setting [1], 831 nM; under setting [2], 464 nM.

As to “AGAAACUUGUAUGUCGGGUGUGCGCGCGAUACCAGCCAAAUGGAUGGCCCUUGGCAGCGCAGCGAGUGAUGUUCGCCCGCUUGAC [Exclusion Theophylline A GF 22]”, the “apparent KD of K4 kissing-loop reporter” value runs as follows: (input ligand: FMN 200 uM) 251 nM; (input ligand: arginine 13.2 mM) 239 nM; (input ligand: none) 302 nM; under setting [1], 354 nM; under setting [2], 232 nM.

On to “AGAACUGUCUUGGAUACCAGUGAUGUUGGUAUCUGUGUGUGAGUGCAAAGCGUCCCACAUUGCCCUUGGCAGCUAAGACUGUUCA [Omei KL Theo B Exc A v1]”, for which the “apparent KD of K4 kissing-loop reporter” value reads like this: (input ligand: FMN 200 uM) 147 nM; (input ligand: arginine 13.2 mM) 129 nM; (input ligand: none) 137 nM; under setting [1], 182 nM; under setting [2], 132 nM.

As for “AGAAGGAGAACUGCAAGAACUCCUUCAGACUAGGAUAUCAGGAAACUGAGAAGGAGUCAACUUGCAGUGAUGUUGCAAGAAUAAU [[F]''-[K]'-[F]'-[F1]-[F2]-[K1]-[K2]_Design1]”, the “apparent KD of K4 kissing-loop reporter” value stood at 155 nM (input ligand: FMN 200 uM); 114 nM (input ligand: arginine 13.2 mM); 119 nM (input ligand: none); 103 nM under setting [1]; 131 nM under setting [2].

As for “AGACCUCAGUGAUGUUGAGGUAACGCUGAUACCAGUGACUUAAUUCACCCUUGGCAGCAGUCCACCAAGGUAUCUGAUUAGGUCU [Theo A Ex t5]”, the “apparent KD of K4 kissing-loop reporter” value was found to be 153 nM (input ligand: FMN 200 uM); 163 nM (input ligand: arginine 13.2 mM); 133 nM (input ligand: none); 144 nM under setting [1]; 138 nM under setting [2].

On to “AGACGCCAGUCGGCCGCCACUCACAGCAGUGAUGUUGCUGAGAAUCUAGAAGAGUGAUGUUCUUAGAGGACCGGGACUCCAGUCG [Same State Tryptophan B GF 7]”, for which the “apparent KD of K4 kissing-loop reporter” value was 354 nM (input ligand: FMN 200 uM); 363 nM (input ligand: arginine 13.2 mM); 383 nM (input ligand: none); 311 nM under setting [1]; 306 nM under setting [2].

Turning to “AGACUACCACACUGUCAAUAGACAGUGAAUUAGGAUAUGCUGAUAAGCAGAAGGAGUGAUGUUCCGAGGUAGUCAAUAAAAUAAU [FmnAX 13 U30+G66]”, the “apparent KD of K4 kissing-loop reporter” value by setting is: (input ligand: FMN 200 uM) 220 nM; (input ligand: arginine 13.2 mM) 204 nM; (input ligand: none) 216 nM; under setting [1], 283 nM; under setting [2], 211 nM.

For “AGACUACCACACUGUCAAUAGACAGUGGACUAGGAUAUGCUGAUAAGCAGAAGGAGUGAUGUUCCUUGGUAGUCAAUAAAAUAAU [FmnAX 13 G28+U67]”, the “apparent KD of K4 kissing-loop reporter” value (input ligand: FMN 200 uM) stood at 308 nM; the “apparent KD of K4 kissing-loop reporter” value (input ligand: arginine 13.2 mM) came to 269 nM; the “apparent KD of K4 kissing-loop reporter” value (input ligand: none) is 253 nM; the “apparent KD of K4 kissing-loop reporter” value under setting [1] stood at 335 nM; the “apparent KD of K4 kissing-loop reporter” value under setting [2] was determined as 265 nM.

As to “AGACUUCACCGAAGGAGCGACGUAGCCUAGUGAUGUUAGGCACGAGAGAAAUCUCGUGUACGUCAGGUAGGUCGCGGUGAAGUCA [Omei KL Arginine B SS C v5]”, the “apparent KD of K4 kissing-loop reporter” value amounted to 990 nM (input ligand: FMN 200 uM); 630 nM (input ligand: arginine 13.2 mM); 961 nM (input ligand: none); 827 nM under setting [1]; 1040 nM under setting [2].

With “AGAGAUAUAUGAGGAUAUGAGUUAGUUAAUGAGUGAGUUUUAGUGUUGUUUGGUUAGUGAUGUUAUUUAGAAGGCGUGAGUGAUG [ttytmullin]”, the “apparent KD of K4 kissing-loop reporter” value (input ligand: FMN 200 uM) came out at 98.8 nM; the “apparent KD of K4 kissing-loop reporter” value (input ligand: arginine 13.2 mM) worked out at 75.2 nM; the “apparent KD of K4 kissing-loop reporter” value (input ligand: none) came to 74.9 nM; the “apparent KD of K4 kissing-loop reporter” value under setting [1] came out at 106 nM; the “apparent KD of K4 kissing-loop reporter” value under setting [2] stood at 75.9 nM.

Take “AGAGGAAAUAGAAGGAGCGGCGCCAGUGAUGUUGGAUGCCGCGGGUGAAUCAGGUCAUAGUGCCAGGUAGGUCGCUAUUUCAGCG [Larebeve]”: the “apparent KD of K4 kissing-loop reporter” value worked out at 177 nM (input ligand: FMN 200 uM); 112 nM (input ligand: arginine 13.2 mM); 141 nM (input ligand: none); 161 nM under setting [1]; 138 nM under setting [2].
